Test results: patent publication US8247227B2, “Dendritic cell precursors” (The Cleveland Clinic Foundation, priority 2006, dated 2012)

B1: Flt3 ligand (protein, UniProt P49771 27-235, looked up)
Fms-related tyrosine kinase 3 …: TQDCSFQHSPISSDFAVKIRELSDYLLQDYPVTVASNLQDEELCGGLWRLVLAQRWMERLKTVAGSKMQGLLERVNTEIHFVTKCAFQPPPSCLRFVQTNISRLLQETSEQLVALKPWITRQNFSRCLELQCQPDSSTLPPPWSPRPLEATAPTAPQPPLLLLLLLPVGLLLLAAAWCLHWQRTRRRTPRPGEQVPPVPSPQDLLLVEH
notes: recombinant human Flt3 ligand, gift of Amgen
B2: interleukin-6 (protein, UniProt P08505 25-211, looked up)
Interleukin-6: FPTSQVRRGDFTEDTTPNRPVYTTSQVGGLITHVLWEIVEMRKELCNGNSDCMNNDDALAENNLKLPEIQRNDGCYQTGYNQEICLLKISSGLLEYHSYLEYMKNNLKDNKKDKARVLQRDTETLIHIFNQEVKDLHKIVLPTPISNALLTDKLESQKEWLRTKTIQFILKSLEEFLKVTLRSTRQT
B3: granulocyte-macrophage colony stimulating factor (protein, UniProt P01587 18-141, looked up)
Granulocyte-macrophage …: APTRSPITVTRPWKHVEAIKEALNLLDDMPVTLNEEVEVVSNEFSFKKLTCVQTRLKIFEQGLRGNFTKLKGALNMTASYYQTYCPPTPETDCETQVTTYADFIDSLKTFLTDIPFECKKPGQK
notes: murine GMCSF from Immunex

Tests used:
BM cells [1] = test: Step 2 culture: DC maturation and IL-12 production upon CpG+LPS after Step 1 conditioning; assay type: cell-based, mouse; conditions: for Step 2 response to TLR agonists (DC maturation) after Step 1 conditioning: CpG+LPS stimulation
From the text: Following Step 1 conditioning, BM cultures were washed thoroughly and exposed to TLR agonists to test the cells' potential for DC maturation and IL-12 production during Step 2 culture. Since TLR9 and TLR4 were invariably expressed by mouse BM cells at the end of Step 1 cultures (not shown), we standardly employed CpG (ODN 1826) and lipopolysaccharide (LPS) to stimulate coordinate activation of MyD88 and TRIF pathways (Napolitani, G. et al. Nat. Immunol. 6, 769-776 (2005)).
(§1) Step 2 was initiated (0 hr) in CM, rmGMCSF and optionally rmIL4. Step 2 cultures were performed in 24 well cluster plates, 4 million BM cells per well in 2 ml CM. DC1 polarization stimuli such as CpG (ODN 1826, 5 μM) and LPS 50 ng/ml were added between 18-24 hrs, and cells harvested at 40-44 hrs for analyses. When included, immunosuppressive agents rmIL10, rmVEGF, rhTGFβ1 or PGE2 were added between 0 and 24 hrs of Step 2 culture at doses specified in Results. Alternatively, particulate tumor cells, either viable unirradiated, viable irradiated (10,000 cGy), or killed freeze-thawed lysate (Cohen, P A et al. Cancer Res. 54, 1055-1058 (1994)), were added to Step 2 BM cells. Viable tumor cells were sometimes labelled with CFSE (Molecular Probes, Eugene, Oreg.) to allow their identification and exclusion during subsequent FACS analyses (Peng, L. et al. J. Immunol. 169, 4811-4821 (2002)).
For routine multicolor FACS analyses, BM cells were cultured in anti-CD32 mAb plus normal mouse IgG to block FcRs, then directly stained with conjugated specific mAbs or isotype controls as listed in the figures (BD-Pharmingen, Mountain View, Calif.) (Peng, L. et al. J. Immunol. 165, 5738-5749 (2000)). When additionally assessing IL12 production at the cellular level, the last 16 hrs of Step 2 culture were performed in monensin (Golgistop™, BD-PharMingen). Then, following FcR block and direct staining of surface molecules, cells were fixed in formalin and permeabilized in tween (CytoPerm/CytoFix™, PharMingen), then additionally stained with PE-anti-mouse IL12p40 (BD-Pharmingen) or isotype control.
Assessments of supernatant contents of mIL12p70 heterodimer were performed with BD-Pharmingen reagents. mIFNα and mIFNβ ELISAs were performed with kits from PBL Biomedical Laboratories (New Brunswick, N.J.).

[2] = test system: CD34^pos stem cell subpopulation; test: Step 1 proliferative culture of fresh bone marrow: numeric expansion; assay type: cell-based, mouse; conditions: fresh mouse BM, 6-7 day Step 1 culture
Description: FIG. 6 is a chart showing numeric expansion resulting from the exposure of bone marrow (BM) suspensions to various factors. BM freshly harvested from C57BL/6 mice was cultured for 6 days in the specific factors, then harvested and counted. Each bar represents 3-11 determinations±s.d., each performed in synchronous comparison to at least five other groups. […] Synergistic expansions reflected a 35-80 fold selective outgrowth of the CD34^pos subpopulation (see FIG. 10);
FIG. 10 is a histogram showing gross numeric expansion of fresh bone marrow (BM) reflective of selective outgrowth of the CD34^pos subpopulation. Freshly prepared mouse BM cell suspensions were stained with FITC-anti-CD34 mAb to enable isolation of CD34^pos and CD34^neg subpopulations by a FACSAria cell sorter. CD34^pos cells initially represented 10.8±7% of the total BM cells. The following groups were then cultured for 6 days in 75 cm^2 flasks, either in Flt3L+SCF+IL6 (striped bars) or in Flt3L+IL6 (solid bars): “Unfractionated BM” (12-15 million per flask); “FACS sorted CD34^neg cells” (12-15 million per flask); “FACS sorted CD34^pos cells” (2-3 million per flask); or “FACS sorted, unirradiated CD34^pos cells plus irradiated (3,000 cGy) CD34^neg cells.” Labels above bars indicate fold numeric expansion during the 6 day culture. […] (Not done=group not done);
We cultured fresh mouse BM in two stages, a 6-7 day proliferative phase (Step 1) and a 2-3 day post-proliferative phase (Step 2). […] FACS sorting experiments confirmed that such expansion represented a net 35-80 fold proliferation of the minor (<12%) CD34^pos stem cell subpopulation, with rapid dropout of the initially CD34^neg subpopulation (FIG. 10). Stem cell proliferation persisted well past day 7 if medium and factors were adequately replenished (not shown).
Single cell suspensions were prepared from the femurs and tibias of healthy mice (Kuriyama, H. et al. Dev. Biol. (Basel) 116, 169-178 (2004)). Following RBC lysis by ammonium chloride, no further processing was performed. […] BM cells were normally cultured for 6-7 days, harvested, counted, and washed twice in PBS prior to initiation of Step 2 cultures.

BM cells [3] = test: Step 2 culture: spontaneous DC maturation without exogenous maturation stimuli; assay type: cell-based, mouse
From the text: DC differentiation typically arrests at the immature stage unless DCs are exposed to additional signals such as CD40 ligation, calcium ionophore or TLR agonists (Xu, S. et al. J. Immunol. 171, 2251-2261 (2003); Bonifaz, L. et al. J. Exp. Med. 196, 1627-1638 (2002); Napolitani, G. et al. Nat. Immunol. 6, 769-776 (2005); Czerniecki, B J et al. J. Immunol. 159, 3823-3837 (1997); Mailliard, R B et al. Cancer Res. 64, 5934-5937 (2004)). […] Instead, uniform upregulation of MHC Class II and CD11c ensued within hours of transfer from Flt3L+IL6 into GMCSF, followed by upregulation of CD40, co-stimulatory molecules and CCR7 between 48 and 72 hours of Step 2 culture.
as §1

[4] = single agent; cited from earlier work
mouse tumors = conditions: single agent; cited from earlier work
[5] = test system: CD11c^pos (committed DC) subpopulation; test: In vivo responses to TLR agonists; design: species or system mouse; conditions: i.p. treatment
Description: FIG. 21 is a bar graph showing in vivo responses to TLR agonists. Mice were injected for 6 days with 10 mcg i.p. rhFlt3-L or no treatment. On the subsequent day, some mice were treated with a single i.p. injection for rmGMCSF 12 mcg. On the subsequent day, some mice were injected with i.p. with 50 mcg CpG (ODN 1826) and 100 mcg pI:C. […] The next day, mice were euthanized and spleens counted and analyzed by FACS for the activation status of the CD11c^pos (committed DC) subpopulation. MHC Class II, CD40, and CD86 (B7.2) were co-analyzed.

STAT5KO BM = test: Conditioning of STAT5 knockout BM; assay type: cell-based, mouse
Description: (§2) FIG. 18 illustrates responses of STAT knockout vs. wildtype littermate BM to Flt3-L+IL-6 vs. GMCSF-containing conditioning regiments. […] BM was obtained from KO mice or from matched wildtype LMs, placed in standard Step 1 cultures with Flt3-L+IL-6, Flt3-L+IL-6+GMCSF, or GMCSF alone as conditioning agents, then placed in 48 hr Step 2 cultures with GMCSF+IL-4 with CpG+LPS included during the final 18 hours. […] Data are presented as mean±s.d. of 3 replicates and are representative of three (STAT5KO vs LM) or two (STAT3KO vs LM) independently performed experiments;
(§3) We examined how STAT knockout BM preparations responsed to Flt3L+IL-6 conditioning. […] Therefore, the proliferative and differentiative impacts of Flt3-L+IL-6 conditioning were absolutely STAT3-dependent, whereas final phenotypic maturation and DC1-polarization were at least partially STAT5-dependent.
(§4) We also examined how STATKO BM preparations responded to GMCSF-containing Step 1 regimens (GMCSF alone, Flt3-L+GMCSF, or Flt3-L+GMCSF+IL-6). […] Therefore, all tested GMCSF-containing regimens promoted STAT5-dependent DC differentiation, with later phenotypic maturation and DC1-polarization proving susceptible to inhibition through STAT3.

conditioned BM cells = test: Tumor contact during Step 2 culture: DC maturation and IL12 production; assay type: cell-based, mouse
Description: Because DC ingestion of cellular material can induce tolerogenic DCs (Bonifaz, L. et al. J. Exp. Med. 196, 1627-1638 (2002)), we tested the impact of exposing DCs to large volumes of tumor at 16-24 hours of Step 2 culture in GMCSF, to determine tumor's impact on subsequent spontaneous maturation. To cluster plate wells each containing 4 million conditioned BM cells, we added either 4 million freeze-thawed (killed) tumor cells; 3 million irradiated (10,000 cGy), trypan-excluding tumor cells; or 2 million unirradiated, actively proliferating tumor cells. Given the much larger dimensions of viable tumor cells compared to the cultured BM cells, these represented voluminous tumor challenges.
as §1

STAT3KO BM = test: Conditioning of STAT3 knockout BM; assay type: cell-based, mouse
Description: as §2, §3, §4

L-selectin^low T cells = test: T cell co-cultures with variously conditioned DCs; assay type: cell-based, mouse; conditions: DCs prepared after the named Step 1 conditioning
Description: Step 2 DC cultures were performed in rGMCSF and rIL-4 with irradiated MCA-203 cells added at 24 hr and CpG+LPS added at 44 hr. Four hours later, DCs were harvested for co-culture with L-selectin^low T cells freshly harvested from MCA-203 tumor-bearing mice. T cells were co-cultured with DCs at an 8:1 ratio or were activated with immobilized anti-CD3. […] Cultures shown also received exogenous IL-2, IL-7 and IL-15.
Cultures shown also received exogenous IL2, IL7 and IL15.
Conditioned DC precursors were transferred to Step 2 culture, exposed to viable irradiated tumor, optionally further activated with CpG+LPS, then co-cultured with tolerized TDLN T cells from mice bearing the relevant tumor.
Prior to harvest of T cells from tumor-bearing mice, DCs were prepared under various Step 1 conditions in CM; Step 2 was performed in 1% non heat-deactivated mouse serum instead of FCS (CM-MS), during which BM cultures were exposed to viable irradiated tumor cells, then CpG+LPS as denoted in Results. On the day of DC harvest, T cells were freshly harvested from the tumor-draining lymph nodes of mice bearing 12 day tumors. The L-selectin^low (tolerized pre-effector) fraction of T cells was isolated by negative selection as described previously (Peng, L. et al. J. Immunol. 165, 5738-5749 (2000); Wang, L. et al. J. Translational Med. 2, 41 (2004)), and cultured in CM-MS with immobilized anti-CD3 (Peng, L. et al. J. Immunol. 165, 5738-5749 (2000); Wang, L. et al. J. Translational Med. 2, 41 (2004)) or variously conditioned DCs. Beginning on day 2 of T cell culture, some groups also received rhIL2 (24 I.U./m1), or rhIL2, rhIL7 (50 ng/ml) and rhIL15 (5 ng/ml). T cells were harvested for assays and adoptive therapy after 12 days of culture.

Row | Molecule | Step 2 response to TLR agonists (DC maturation) after Step 1 conditioning (BM cells [1]) | numeric expansion during Step 1 culture [2] | spontaneous DC maturation during Step 2 culture (BM cells [3]; after Step 1 conditioning, no exogenous maturation stimuli) | myeloproliferative activity in animals [4] | therapeutic properties against established mouse tumors (mouse tumors) | activation of maturation markers MHC Class II, CD40, CD86 on CD11c^pos spleen cells [5] | effect of GMCSF addition during Step 2 culture (BM cells [1]; GMCSF added in Step 2 only) | effect of co-conditioning with GMCSF on Flt3L+IL6's licensing impact (BM cells [1]; GMCSF present in Step 1) | proliferation and DC differentiation of STAT5KO BM (STAT5KO BM) | effect of GMCSF as Step 1 agent on licensing of tumor-induced activation by Flt3L+IL6 (conditioned BM cells) | survival / proliferation of STAT3KO BM in Step 1 conditioning (STAT3KO BM) | maturational and IL-12p70 response of STAT3KO DCs (STAT3KO BM; TLR stimulation, Step 2) | effect of GMCSF as Step 1 agent on licensing of spontaneous DC maturation by Flt3L or Flt3L+IL6 (BM cells [3]) | effect of conditioned DCs on tolerized T cell co-cultures (proliferation / toxicity) (L-selectin^low T cells)
1 | B1 | nearly global licensing for pronounced TLR reactivity | yielded only a fraction of culture input | spontaneous tendency to complete DC maturation | highly myeloproliferative |  |  |  |  |  |  |  |  |  | 
2 | B2 |  |  |  |  | extremely potent therapeutic properties |  |  |  |  |  |  |  |  | 
3 | B3 | infrequent and/or blunted responses to the TLR agonists |  |  |  |  | further enhanced | not at all inhibitory | abrogated | strikingly ineffective for generating DCs | fully abrogated | normal proliferation kinetics | abnormally heightened maturational and IL-12p70 response to TLR stimulation | fully abrogated | ineffective for propagating the T cells
